Measured values taken from patent US20230272114A1.

Key:
Assay in all cases: Biacore SPR
[1] = biological target: human H131 FcγRIIa (human) (UniProt P12318)
[2] = biological target: recombinant human FcγRIIb protein (R&D Systems) (human) (UniProt P31994)
human FcγRI (human) = human FcγRI (human) (UniProt P12314)
[3] = biological target: human V158 FcγRIIIa (human) (UniProt P08637)

Chain of recombinant human FcγRIIb protein (R&D Systems) (human) (P31994 46-217): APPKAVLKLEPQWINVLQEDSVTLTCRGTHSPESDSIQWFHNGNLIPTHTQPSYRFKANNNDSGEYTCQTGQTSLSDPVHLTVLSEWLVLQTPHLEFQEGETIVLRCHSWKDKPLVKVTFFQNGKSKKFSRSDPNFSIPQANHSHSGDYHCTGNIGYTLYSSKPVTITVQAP
Chain of human FcγRI (human) (P12314 16-288): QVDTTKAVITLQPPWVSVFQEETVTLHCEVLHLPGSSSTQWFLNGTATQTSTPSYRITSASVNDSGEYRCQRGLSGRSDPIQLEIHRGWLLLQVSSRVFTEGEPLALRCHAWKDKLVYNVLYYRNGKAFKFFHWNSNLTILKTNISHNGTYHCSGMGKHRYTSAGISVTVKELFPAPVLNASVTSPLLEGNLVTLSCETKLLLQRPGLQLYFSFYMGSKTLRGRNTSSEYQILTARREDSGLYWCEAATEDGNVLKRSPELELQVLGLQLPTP

anti-CD19 antibody HuAM4G7 IgG1 Fc variant S239D/S267E
Kd [1]: 700 nM | Kd [2]: 12 nM | Kd (human FcγRI (human)): 0.17 nM | Kd [3]: 62 nM
